The values below come from US20160040149A1, “Compositions Having Dicamba Decarboxylase Activity and Methods of Use” (priority 2013, published 2016).

To fix the notation:
B1: 26 (protein, listed as Variovorax paradoxus)
chain: MATHMAPMKNKIALEEHFAIDLTIADSQVYARPEVWQGLKSNLLDFEQQRLEKMDEWGTEFSILSLNSPAVQGIPDAKRAIEVAQRANDVLAEQVKRHPTRFGGFAALPMQDPEASARELERCVNQLGFHGFLVNGFSQVGDENIVVYYDDARFNDFWTAAAALKKPFYMHPRDPLLAREPIYDGAHWLTGPTWAFAMETAIHALRLMSSGMFDRHPALQMILGHFGEGIPFNIWRVDHILRKGRRGMPCDKEIGEYLRSNVHITTSGNFRTPTLLSTMLEVGSDRIMYSVDYPFEKHEDAARWFDTCEISENDRQKIGRDNARKLFGLK
B2: 25 (protein, listed as Acidovorax avenae)
chain: MAQGKIGLEEHFAIPETLQDSAGFVPGDYWKELSLRLLDIHERRLREMDENGMEMMILSLNAPAVQAIPDTKKAVEIAVRANDFLAEQVARRPDRFQAFAALPMQDPDLATRELERCMQDLGFRGALVNGFSQVGTPENVVYYDAPQYGDFWAAVERLDAPFYLHPRNPIASWAQIYQGHPWLMGPTWAFAQETAVHALRLMASGLFDRHPGLRIILGHLGEGLPYNMWRVDHRNAWVDMPKGYPAKRKLCDYFHENFYLTTSGNFRTQTLIDALLEVGADRILFSTDWPFENVDHAAHWFDDAAISEADRLKIGRTNALSLFKLPQG
B3: 18 (protein, listed as Legionella pneumophila)
chain: MAIVDFETHFITEACIDYLTQRQEVPKLVPELNGAYTMCFTPDVSLFHTSALMEELLSLNEQRLAIMDQAGVTIQVLSLTTINGIDSCPGDENKSTALAREVNDQLYSAIQKHPERFKGFASISPYDVKEGVKELERAISQLGFVGWLTHSNFGQDNYLDDKIYWPLLEAAESLNIPIYLHPNVPIMREFGKYGFALGGSALGFEFDTALCLMRMILGGVFDAFPKLKIMLGHLGETMPFLMERLDHLYRIPDLKPYRPSIQRIPSEVLRQNVYITTSGRFFVPALRYVLEVMGEDRVLFASDYPMESLLDATRFIQDSDLSNQTKQKIFSINAKNLNLI
B4: 20 (protein, listed as Legionella pneumophila)
chain: MAIVDFETHFITEACIDYLTQRQEVPKLVPDLNGAYTMCFTPDVSLFHTSALMEELLSLNEQRLAIMDQAGVTIQVLSLTTINGIDSCPGDENKSTALAREVNDQLYSAIQRHPERFKGFASISPYDVKEGVKELERAISQLGFVGWLTHSNFGQDNYLDDKTYWPLLEAAEGLNIPIYLHPNVPIMREFGKYGFALGGSALGFEFDTALCLMRMILGGVFDAFPKLKIMLGHLGETMPFLMERLDHLYRIPDLKAYRPSIQRIPSEVLRQNVYITTSGRFFVPALRYVLEVMGEDRVLFASDYPMESLLDATRFIQDSDLSNQTKQKIFSINAKNLNLI
B5: 22 (protein, listed as Staphylococcus epidermidis)
chain: MAKSINFEEHYVVDDIQKETMKYMSSDPNGVPMQTMLKGLEQKSGFTNADDITKHDERIKFMDEHDVEMQVLSYGNGAPSNLEGERAIELCQQANDTLAKYVNEHPDRFVGFATLPINEPQAAVEEFKRCIKELGFKGALIMGHPKNGFLDQDQYDDLFATAEALNVPIYLHPSPVQSDVYQAYYKGNYSDVTAATFACFGYGWHVDVGIHAIHLVLSGVFDRHPNLNMIIGHWGEFVPFFLERMDDILFADHLEHPISYYFKNNFYITPSGMLTKPQFDLVKAEVGVDRILYSADYPYVEPDKLGTFLDELDLTEEEKEKISYKNGAKLLGLEK
B6: 17 (protein)
chain: MARGKIALEEAFEVKGMDEEIDAQAALYIAPKDVERYKRQIVSITDERLQLSDQNGIGYSILSLTVPGIQGITDKDKAEKRARDVNNYIHDQIKDHRDRLGAFAALSMHDPRQAGHELRRCVKELGFHGALLNDVQHTGEGDDDQPLFYDQPDYDEFWRVAVELDVPVYLHPAAPLRDTLIYKQSYEDRKYLVGPPQSYCNGVALHLMGIIVNGVFDRFPNLKVIVGHMGERIPFDFWRMDHWVKGVTRPLAEKNGDTVCQKEPLYYFKRNIYITTSGHFSTQNLRYLYEWLGDERMMFSVDFPYERMEHGCQWYDDDAEKIKEALGGRDGYLRVGRDNARRLFKLTKFKDCDAV
modifications: Aspergillus niger
B7: 15 (protein, listed as Metarhizium anisopliae)
chain: MAQEIAKSHETSTRFAGFAVLPMRDPEAAAKELERAVKKLGFVGALVDHKTAHGNGFCEGNEYDVLWRKAEQLAVPIYLHPSWPTEKQFQQAYAGNYSPTAAGTIGGAMFNWHSEVGHHVLRLYAAGVFDKFPKLKIIIGHFGEMIPYMLDRIREQDHRLGKTGRTFSEVYDENIWITTSGVWSLDPMRCILANTKIDHILYSVDYPFTMNERGLEWFQELEKSGLLSEEDLALIAYKNCEKLLGVKAPTQD
B8: 19 (protein, listed as Talaromyces marneffei)
chain: MATPIITLEEHYISSAIRDASETDHYAVFPSQIISKLNTLSTERLQDLDNGHVSLQVISHGPGAQPPYLCQAANDELASAISANPTRFAGFALLPIAEPQLAVQELERCITQHKFVGALIDNHTNGQFYDDQKFWPVFEKAQELDAPIYVHPSYPDEESGVAAHYRGNYDDRIAAALGAYGWGWHSDTALSILRLFAAGLFDTYPNIKIIIGHMGEMLPFQLERVIGIASRFGRSRGLREVWTQNIWVTTSGMFALAPLACLLQTMPIERVLYSVDYPFSANEKGFAFLEEIKKSGLIKEGEDWERFLYKNAQELLKVNV
B9: 16 (protein, listed as Staphylococcus aureus)
chain: MAQNNMEANQMKSITFEEHYVIEDIQKETMNAISADPKGVPMKVMLEGLEKKTGFTNADELSHHDERIQFMNNQDVQIQVLSYGNGSPSNLVGQKAIELCQKANDQLANYIAQYPNRFVGFATLPINEPETAAREFERCINDLGFKGALIMGRAQDGFLDQDKYDIIFKTAENLGVPIYLHPAPVNSDIYQSYYKGNYPEVTAATFACFGYGWHIDVGIHAIHLVLSGIFDRYPKLNMIIGHWGEFIPFFLERMDEALFAEHLNHPVSYYFKNNFYITPSGMLTKPQFDLVKKEAGIDRILYAADYPYIEPEKLGVFLDELGLTDEEKEKISYTNGAKLLGLSSNN
B10: 29 (protein, listed as Pseudovibrio sp.)
chain: MAGRRDFLRKSVAAGVGLTAAAQLSAGGAQATVPDTSNIPLITLEEHFTTPELQSKNTSGDKRLFSGGGSRPELLDVGAGRIADMDEAGIDIQVLSTVTPGASKITGAEGVEFTRKFNTWIAEEVIAAYPNRFRAFATLPLSSPEAAADELERSVREYGFVGTMTYGPIDGKFLDHADYAPLLARAEALGVPIYIHPNWPSPTAMQAYYDGLGDDLTSRILSGPGYGWHQEIAVQCLRLIVGGVFDRFPNLQIVVGHMGEGLPFYYWRVGEDLDRIAQKRLQKPVQQYFHDNLWITTSAFFRDELLNLALATMGEDRVMFSVDYPMASAKVGADWLRAADIPLATKEKIGSKNAMKLLGIDKI
B11: 23 (protein, listed as Aplysina aerophoba)
chain: MAIDIDARSQPGLETARRAMSRRDFLGGAAAFGITAAATTALPASTAAGEEEDLFLLGLEEHFATAELRRLNGIQFPQGTPRFDINDVGAGRIADMDAAGIDIQVLSALTPGAQNLPGAEGVAYARRLNSWVAHEVIPAYPGRFRAFATLPLSEPQAAADELEYAVRELGFLGCMTYGAVDGKFLDHADFVPVLARAETLDVPIYIHPNWASPQVMDTYYNGLGNEWVSRVLSGAGYGWHQEVALQCLRMIASGVFDRFPRLQIIVGHMGEGLPFFYWRFGDDLARITADTLEKPVQQYFHDNFWITTSAFFRDELLRLVLSVMGEDRVMFAVDYPFVSNKVGADWFRAVDLPRNVKEKIAHKNAERLLKIGPF
B12: 27 (protein, listed as Aspergillus oryzae)
chain: MALGKIALEEAFALPRFEEKTRWWASLFSTDAETHVKEITDINKIRIEHADKHGVGYQILSYTAPGVQDIWDPVEAQALAVEINDYIAEQVRVNPDRFGAFATLSMHNPKEAADELRRCVEKYGFKGALVNDTQRAGPDGDDMIFYDNADWDIFWQTCTELDVPFYMHPRNPTGTIYEKLWADRKWLVGPPLSFAHGVSLHVLGMVTNGVFDRHPKLQIIMGHLGEHVPFDMWRINHWFEDRKKLLGLAETCKKTIRDYFAENIWITTSGHFSTTTLNFCMAEVGSDRILFSIDYPFETFSDACEWFDNAELNGTDRLKIGRENAKKLFKLDSYKDSSA
B13: 28 (protein, listed as Sphingomonas paucimobilis)
chain: MARLIATEEAVTFQPVVDALRAHSRTDDASLDMILVRDVYGDEPARPAMIGRLSDVTGERLAEMDSNGVDMHLLSLTAPGVQMFDAETGTRLARIANDLMAQTVAANPTRFAGLGTFAPQDPASAAREIERVATQLRLNGLVINSHTNDLYYDDPFFHPVFEAIEASGLALYIHPRAPSKQIDRAFRDYGMNSAIWGYGIETSTNAVRMILSGLFDRFPRLKIVLGHMGEAIPFWLWRLDYMHGNATTFGGAPKLKLKPSEYFRRNFAITTSGVESHAALRYSIEVLGPENVMWAIDYPYQPMAPAVQFIRTAPIPEDVKAMVAGGNAARIFRIT
B14: 24 (protein)
chain: MALGKVVLEEAYERPNMKEKSNHEAGLYIAPNDRPRYMRQINDINQERLKLADAHGVGYTIISLTVPGIQGIFDKTEAERVATETNNWAAEQIKNHRDRLGAFACLSMHDPAQAANELRRCVQELGFHGALLCSFQHAGPDGETYLFYDQPKYDVFWKALTELDVPLYIHPAAPTGSILERLYAQRPALIGPPLSFANDVSLHTLGIISNGVFDRFPNLKIIIGHLGEHIPFDFWRIDHWFRDVKKPIADEEGRVMAQKSLYHYFKHNIWLTTSGHFSTPTLKYVVNEIGVDRVLFSVDYPYETTESGCNWWDHDKDAIVEAVGGVDNYYAIGRENAKKLLRLDKFHDSDAR
modifications: Aspergillus niger
B15: 21 (protein, listed as Agrobacterium tumefaciens)
chain: MAQGKVALEEHFAIPETLQDSAGFVPGDYWKELQHRLLDIQDTRLKLMDAHGIETMILSLNAPAVQAIPDRKKAIEIARRANDVLAEECARRPDRFLAFAALPLQDPDAATQELQRCVNDLGFVGALVNGFSQEGDGQTPLYYDLPQYRPFWGEVEKLDVPFYLHPRNPLPQDSRIYDGHPWLLGPTWAFAQETAVHALRLMASGLFDAHPRLNIILGHMGEGLPYMMWRIDHRNAWVKLPPRYPAKRRFVDYFNENFHITTSGNFRTQTLIDAILEIGADRILFSTDWPFENIDHASDWFNATTIAEADRVKIGRTNARRLFKLDGR

The test is described as follows: Saturation mutagenesis of SEQ ID NO:109: dicamba decarboxylation activity of point mutants (CO2 released), fold of backbone (Tables 7, 8, Megatable 1). To be noted: decarboxylation activity (CO2 released) of point mutant vs unmutated backbone protein; backbone SEQ ID NO: 109.
With B1, the “Fold Activity” value is listed as 1.2 fold.

For B2, the “Fold Activity” value is recorded as 1 fold.

As to B3, the “Fold Activity” value was 1.2 fold.

Regarding B4, the “Fold Activity” value is on record as 1.8 fold.

Regarding B5, the “Fold Activity” value worked out at 1.6 fold.

As for B6, the “Fold Activity” value is on record as 1.8 fold.

For B7, the “Fold Activity” value was found to be 1 fold.

As for B8, the “Fold Activity” value is given as 1.6 fold.

For B9, the “Fold Activity” value is reported as 1.1 fold.

Take B10: the “Fold Activity” value turned out to be 1.5 fold.

On to B11, for which the “Fold Activity” value amounted to 1.5 fold.

With B12, the “Fold Activity” value stood at 1 fold.

As to B13, the “Fold Activity” value is 1.2 fold.

For the molecule B14, the “Fold Activity” value turned out to be 1.6 fold.

For B15, the “Fold Activity” value stood at 1.9 fold.
